The assay concerns the target T1, hK1 (human tissue kallikrein 1), recombinant (human, UniProt P06870 25-262).
T1 construct: Expressed in P. pastoris from KLK1 cDNA and purified; enzymatically active; also called KLK1; Recombinant (Pichia) Kallikrein
Put plainly: SPR.

As usually defined, the Kd is the free concentration of one partner at which half of the binding sites on the other are occupied at equilibrium, for simple one-to-one binding. By koff is commonly meant a measure of how fast the partners let go of each other. As a reminder, the kon is the rate constant with which the complex forms.

Positions count from the first letter of the chain named.

B1: M0110-D11 (Fab, V domains shown)
VH: EVQLLESGGGLVQPGGSLRLSCAASGFTFSHYLMYWVRQAPGKGLEWVSRIGPSGGWTKYADSVKGRFTISRDNSKNTLYLQMNSLRAEDTAVYYCARVGVWYGMDVWGQGTTVTVSS
VL: AQSELTQPASVSGSPGQSITISCTGTSTDVGGYNYVSWYQKHPGKAPKLMIYDVSNRPSGVSNRFSGSKSGNTASLTISGLQAEDEADYYCSSYTNTITVVFGGGTKLTVLG
Consider B1, for which the Kd was determined as 6.38 nM, the koff was determined as 0.00134 s⁻¹ and the kon was 210000 M⁻¹ s⁻¹.

B2: M0095-A11 (Fab, V domains shown)
VH: B1 VH with H31P, L33M, Y35G, R50S, G52R, P53S, W57A, K59A, V93T
VL: DIQMTQSPATLSLSPGERATLSCRASQSVSSYLAWYQQKPGQAPRLLIYDASNRATGIPARFSGSGSGTDFTLTISSLEPEDFAVYYCQQRSNWPPYTFGQGTKLEIKR
Consider B2, for which the Kd was determined as 7.22 nM, the koff stood at 0.00379 s⁻¹ and the kon was determined as 525000 M⁻¹ s⁻¹.

B3: M0109-A11 (Fab, V domains shown)
VH: EVQLLESGGGLVQPGGSLRLSCAASGFTFSNYTMTWVRQAPGKGLEWVSVIYPSGGHTTYADSVKGRFTISRDNSKNTLYLQMNSLRAEDTAMYYCARGGRWFSLDYWGQGTLVTVSS
VL: B1 VL with T28S, V36L, K41Q, D53G, N63T, N96S, I98G, V100R, K107R
In the case of B3, the Kd was 7.45 nM, the koff amounted to 0.0035 s⁻¹ and the kon was found to be 470000 M⁻¹ s⁻¹.

B4: M0130-B02 (Fab, V domains shown)
VH: B1 VH with H31N, L33S, Y35V, G52Y, P53S, W57S, K59H
VL: AQSALTQPASVSGSPGQSITISCTDTSGNVGSYNLVSWYQQHPDKAPKLMIFEVSRRPSGVSDRFSGSKSGNTASLTISGLQAEDEADYYCCSYAGSNTYVFGTGTKVTVLG
Consider B4, for which the Kd was 7.8 nM, the koff stood at 0.00307 s⁻¹ and the kon turned out to be 394000 M⁻¹ s⁻¹.

B5: M0092-F08 (Fab, V domains shown)
VH: B1 VH with L33P, Y35I, R50G, G52Y, P53S, W57T
VL: DIQMTQSPATLSLSPGERATLSCGASQSVSSSYLAWYQQKPGLAPRLLIYDASSRATGIPDRFSGSGSGTDFTLTISSLQPEDFATYYCLHDYNFPFTFGPGTKVDIKR
As for B5, the Kd came to 7.27 nM, the koff was 0.00158 s⁻¹ and the kon worked out at 218000 M⁻¹ s⁻¹.

B6: M0107-F11 (Fab, V domains shown)
VH: B1 VH with L33Q, Y35H, R50S, G52R, W57R, K59A
VL: DIQMTQSPGTLSLSPGERATLSCRASQSVSGSYLAWYQQKPGQAPSLLIYGAYSRATGIPDRFSGSGSGTDFTLTISRLEPEDFAVYYCQHYGSSPRTFGGGTKVEIKR
Consider B6, for which the Kd was 9.71 nM, the koff stood at 0.0066 s⁻¹ and the kon is 680000 M⁻¹ s⁻¹.

B7: M0135-C11 (Fab, V domains shown)
VH: EVQLLESGGGLVQPGGSLRLSCAASGFTFSNYSMQWVRQAPGKGLEWVSGIRPSGGSTRYADSVKGRFTISRDNSKNTLYLQMNSLRAEDTAVYYCAVSTGGYYYGMDVWGQGTTVTVSS
VL: DIQMTQSPSSVSASVGDRVTITCRASQGISSWLAWYQQKPGKAPKLLIYAASSLQSGVPSRFSGSGSGTDFTLTISSLQPEDFATYYCQQANSFPSLTFGGGTKVEIKR
For B7, the Kd is 6.85 nM, the koff was determined as 0.00231 s⁻¹ and the kon was found to be 337000 M⁻¹ s⁻¹.

B8: M0105-B06 (Fab, V domains shown)
VH: EVQLLESGGGLVQPGGSLRLSCAASGFTFSHYAMGWVRQAPGKGLEWVSRIWPSGGHTQYADSVKGRFTISRDNSKNTLYLQMNSLRAEDTAMYYCATGYSSTWGAFDIWGQGTMVTVSS
VL: DIQMTQSPSSLSASVGDRVTLTCRASQSIANYLNWYQQKPGKAPKLLVYAASRLHSGVPSRFSGRGSGTDFTLTITSLEPDDLATYYCQQSHASPLTFGGGTKVEIKR
For the molecule B8, the Kd was 8.81 nM, the koff worked out at 0.0036 s⁻¹ and the kon came to 409000 M⁻¹ s⁻¹.

B9: M0136-F08 (Fab, V domains shown)
VH: EVQLLESGGGLVQPGGSLRLSCAASGFTFSHYKMGWVRQAPGKGLEWVSSIRPSGGATKYADSVKGRFTISRDNSKNTLYLQMNSLRAEDTAVYYCARVGIWDAFDIWGQGAMVTVSS
VL: DIQMTQSPGTLSLSPGERATLSCRASQSVSSSYLAWYQQKPGQAPRLLIYDASNRATGIPARFSGSGSGTDFTLTISSLEPEDFAVYYCQQWDTFGQGTKLEIKR
In the case of B9, the Kd was determined as 5.97 nM, the koff is 0.00284 s⁻¹ and the kon came to 476000 M⁻¹ s⁻¹.

B10: M0110-H11 (Fab, V domains shown)
VH: B9 VH with G35E, S50R, A57V, A97T, V99G, I101L, A112T
VL: DIQMTQSPSSLSASVGDRVTITCRASQSISSYLNWYQQKPGKAPKLLIYAASSLQSGVPSRFSGSGSGTDFTLTISSLHPEDFATYYCQQTYSTLFTFGPGTKVHIKR
B10: the Kd was 6.17 nM, the koff was 0.00601 s⁻¹ and the kon stood at 975000 M⁻¹ s⁻¹.

B11: M0135-E10 (Fab, V domains shown)
VH: EVQLLESGGGLVQPGGSLRLSCAASGFTFSWYRMSWVRQAPGKGLEWVSSISPSGGPTKYADSVKGRFTISRDNSKNTLYLQMNSLRAEDTAVYYCARPSGDSSVYRPFASWGQGTLVTVSS
VL: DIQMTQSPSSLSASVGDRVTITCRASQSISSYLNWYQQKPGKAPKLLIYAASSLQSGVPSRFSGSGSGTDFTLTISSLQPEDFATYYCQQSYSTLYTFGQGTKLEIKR
As for B11, the Kd is 7.57 nM, the koff was 0.00206 s⁻¹ and the kon was 272000 M⁻¹ s⁻¹.

B12: M0127-C06 (Fab, V domains shown)
VH: EVQLLESGGGLVQPGGSLRLSCAASGFTFSNYPMHWVRQAPGKGLEWVSYIGPSGGWTRYADSVKGRFTISRDNSKNTLYLQMNSLRAEDTAVYYCARAPSGYWGQGTLVTVSS
VL: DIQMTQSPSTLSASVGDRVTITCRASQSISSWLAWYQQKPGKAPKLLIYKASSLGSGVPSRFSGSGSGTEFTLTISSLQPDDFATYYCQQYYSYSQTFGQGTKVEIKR
For B12, the Kd is 8.69 nM, the koff turned out to be 0.00575 s⁻¹ and the kon was determined as 662000 M⁻¹ s⁻¹.

B13: M0098-E01 (Fab, V domains shown)
VH: EVQLLESGGGLVQPGGSLRLSCAASGFTFSMYGMTWVRQAPGKGLEWVSGISPSGGRTYYADSVKGRFTISRDNSKNTLYLQMNSLRAEDTAVYYCAKHRRDYVWWTYGMDVWGQGTTVTVSS
VL: DIQMTQSPATLSLSPGERATLSCRASQSVSGFLAWYQQKPGQAPRLLIYDASNRATGIPARFSGSGSGTDFTLTITRLEPEDFAVYYCQQYGDSSPITFGPGTRLEIKR
With B13, the Kd came to 6.8 nM, the koff came to 0.00101 s⁻¹ and the kon was determined as 148000 M⁻¹ s⁻¹.

B14: M0101-E01 (Fab, V domains shown)
VH: EVQLLESGGGLVQPGGSLRLSCAASGFTFSPYIMSWVRQAPGKGLEWVSSIVSSGGVTLYADSVKGRFTISRDNSKNTLYLQMNSLRAEDTAVYYCTKNINLRYDILTGYFDIWGQGTTVTVSS
VL: DIQMTQSPSSVSASVGDRVTITCRAGQNIYYWLAWYQQKPGKAPQLLIYAASSLQSGVPSRFSGSGSGTDFTLTISSLQPEDFATYYCQQAKSFPVTFGGGTKVEIKR
As to B14, the Kd came out at 9.74 nM, the koff is 0.000941 s⁻¹ and the kon was determined as 96600 M⁻¹ s⁻¹.

B15: M0093-G06 (Fab, V domains shown)
VH: EVQLLESGGGLVQPGGSLRLSCAASGFTFSNYHMDWVRQAPGKGLEWVSVIGPSGGFTRYADSVKGRFTISRDNSKNTLYLQMNSLRAEDTAVYYCARALGGSLDYWGQGTLVTVSS
VL: AQSALTQPRSVSGSLGQSVTISCTGSTSDVGGYTYVSWYQQEPGKAPKLMIHDVSKRPSGVPDRFSGSKSGNTASLIISGLQAEDEADYYCCSYAGSYSYVFGTGTKVTVLG
B15: the Kd is 8.4 nM, the koff stood at 0.00313 s⁻¹ and the kon was found to be 372000 M⁻¹ s⁻¹.

B16: M0108-E11 (Fab, V domains shown)
VH: EVQLLESGGGLVQPGGSLRLSCAASGFTFSNYSMMWVRQAPGKGLEWVSSIYPSGGFTKYADSVKGRFTISRDNSKNTLYLQMNSLRAEDTAVYYCARVGFYGGFVWGQGTTVTVSS
VL: B4 VL with S3Y, A4E, D25A, G28S, N29D, V30L, L35F, D63N
As for B16, the Kd amounted to 8.5 nM, the koff amounted to 0.00355 s⁻¹ and the kon was 418000 M⁻¹ s⁻¹.

B17: M0107-D01 (Fab, V domains shown)
VH: B3 VH with N31W, T33G, T35G, Y52R, H57T, T59R, M93V, W102Y, F103Y
VL: AQSELTQPASVSGPPGQSITISCTGTSSDVGGYNYVSWYQQHPGKAPKLIIYEVSNRPSGVSYRFSASKSDNTASLTISGVQAEDEADYYCSSYKRGGTYVFGTGTTVIVL
As for B17, the Kd is 9.06 nM, the koff was 0.00812 s⁻¹ and the kon was 896000 M⁻¹ s⁻¹.

B18: M0104-B12 (Fab, V domains shown)
VH: EVQLLESGGGLVQPGGSLRLSCAASGFTFSIYAMIWVRQAPGKGLEWVSSIYSSGGPTQYADSVKGRFTISRDNSKNTLYLQMNSLRAEDTAVYYCARGRRTYYYDSSGYYKYAAFDIWGQGTMVTVSS
VL: DIQMTQSPSSLSASVGDRVTITCRASQAISNYLAWYQQQPGKVPKLLISAASTLQSGVPSRFSGSGSGTDFTLSISSLQPEDVATYYCQTYYSVPFTFGPGTKVDFKR
Turning to B18, the Kd came to 7.41 nM, the koff is 0.00171 s⁻¹ and the kon was 230000 M⁻¹ s⁻¹.

B19: M0097-D04 (Fab, V domains shown)
VH: EVQLLESGGGLVQPGGSLRLSCAASGFTFSHYFMHWVRQAPGKGLEWVSYISSSGGLTGYADSVKGRFTISRDNSKNTLYLQMNSLRAEDTAVYYCARRGPVYYYDSSGSHSAFDIWGQGTMVTVS
VL: AQSELTQPPSASGTPGQRVTISCSGSSSNIGSNYVYWYQQLPGMAPKLLIYRNNQRPSGVPDRFSGSKSGTSASLAISGLRSEDEADYYCAAWDDSMSGVVFGGGTKLTVLS
For the molecule B19, the Kd stood at 8.28 nM, the koff came to 0.00168 s⁻¹ and the kon is 203000 M⁻¹ s⁻¹.
